The results in this text go back to patent US20220143136A1, “USE OF ANNEXINS IN PREVENTING AND TREATING MUSCLE MEMBRANE INJURY” (NORTHWESTERN UNIVERSITY, priority 2018, published 2022).

Data set [1] deals with tibialis anterior muscles of wildtype mice. The experiment in a line: Cardiotoxin injection and histology 7 days post injury. The format is in vivo, mouse. The conditions noted are these: 1 mg/kg retro-orbital 2 hours before cardiotoxin, vs BSA control. On the procedure: Cardiotoxin injection and histology. […] Two hours post injection mice were sedated for a second time. While sedated the tibialis anterior muscles were injected along the midline with 10 μm cardiotoxin in 20 ul of PBS as described above. Seven days post injection, the muscle was isolated and frozen. Muscle sections were acquired every 100 μm from muscle tendon into the mid belly, fixed and stained with hematoxylin and eosin. Imaging was performed using a Zeiss Axio Observer A1 microscope (Zeiss, Oberkochen, Germany), using a 10× objective. ZEN software (Zeiss, Jena, Germany) was used for acquiring tiled images. Percent injury area was calculated as the average injured area (containing internal myonuclei) divided by total muscle area of 3 sections per muscle. One muscle from each group was excluded due to technical error in tissue processing. Damage area was measured using FIJI (NIH).

The next data set relates to wildtype myofibers. The experiment in a line: Laser injury FM 4-64 uptake, E coli versus HEK cell produced rANXA6. The conditions noted are these: 13 μg/ml and 130 μg/ml; vs BSA control. The format is cell-based, mouse. On the procedure: Myofiber isolation, laser injury, and dye measurement. For recombinant myofibers studies, myofibers were isolated from wildtype mice. Myofibers were incubated in Ringer's media with 13 μg/ml or 130 μg/ml human recombinant annexin, E coli or HEK cell produced. Bovine serum albumin (BSA) was used as a negative control. FM 4-64 ([…]) was added to the myofibers just prior to imaging. Fibers were subjected to laser-induced damage at room temperature using the Nikon A1R-MP multiphoton microscope. Imaging was performed using a 25×1.1 NA objective directed by the NIS-Elements AR imaging software. FM 4-64 was excited using a 920 nm wavelength laser and emission wavelengths of 575 nm and 629 nm were collected, respectively. To induce laser damage on isolated myofibers, a diffraction limited spot (diameter approximately 410 nm) was created on the lateral membrane of the myofiber using a 920 nm wavelength laser at 10-15% laser power for 1 second. FM 4-64 area was measured using FIJI from a single slice near the middle of the z-stack. Myofiber quality control was based on a number of characteristics including using adherent myofibers with intact sarcomere structure. Myofibers appeared devoid of tears or ruptures induced during the isolation protocol. The region of the myofiber selected for damage was linear and not located on a nucleus or neuromuscular junction.
Statistical analyses were performed with Prism (Graphpad, La Jolla, Calif.). Comparisons relied on ANOVA (1way ANOVA for 1 variable). P-values of less than or equal to 0.05 were considered significant. Error bars represent +/−standard error of the mean (SEM).

For a further data set, the system named is myofibers. The experiment in a line: Annexin repair cap formation after laser injury at multiple Ca2+ concentrations. As to conditions: fluorescently tagged annexin expressed in myofibers; Ca2+ 0-2 mM; modified Hill equation. The format is cell-based, mouse. How it is done: (§1) Electroporation, myofiber isolation, laser injury, cap and vesicle measurement. Flexor digitorum brevis (FDB) fibers were transfected with endo-free plasmid DNA by in vivo electroporation. Methods were described previously in (Demonbreun and McNally, 2015; Demonbreun et al., 2016b; DiFranco et al., 2009). Z-stack projections were acquired from consecutive acquisitions after the final time-lapse frame, approximately 4 minutes post damage, with a […] step size between slices. Z-stack renderings were constructed in FIJI. Measurement of the cap area and feret diameter were conducted from a single slice near the middle of the z-stack using FIJI imaging tools. Fibers expressing similar levels of tagged or GCaMP5G protein were compared. GCaMP5G Ca^2+ fluorescence was measured from the acquired timelapse images, using a standard rectangular ROI, placed inside the myofiber below the site of damage using FIJI. Fluorescence was expressed as F/F0. External vesicle number and GCaMP5G area were measured from endpoint z-stacks and max projection images using FIJI. Vesicles were considered external if they were found outside the sarcolemma assessed in brightfield and fluorescent channels. All measurements were acquired from myofibers isolated from at least n≥3 mice, n≥3 myofibers per mouse.
Calcium kinetics. FDB muscle was electroporated and isolated as described above. Myofibers were damaged in Ringers solution with Ca^2+ concentrations of 2 mM, 1 mM, 0.5 mM, 0.25 mM, 0.175 mM, 0.1 mM, 0.050 mM, and 0 mM. EDTA was added as a Ca^2+ chelating agent in only in the 0 mM Ca^2+ Ringers. Myofibers were isolated directly into 2 mM, 1 mM and 0.5 mM Ringers for those experiments respectively. For experiments using less than 0.5 mM Ca^2+ myofibers were isolated in 0.5 mM Ca^2+ Ringers and then diluted with 0 mM EDTA-free Ca^2+ Ringers. For 0 mM experiments, myofibers were isolated in 0.5 mM Ca^2+ Ringers and then replaced with 0 mM Ca^2++EDTA Ringers just prior to imaging. Co-electroporation of wildtype annexin+wildtype annexin constructs was performed in one mouse foot, while the contralateral foot was co-electroporated with wildtype annexin+mutant annexin. All measurements were acquired from myofibers isolated from at least n≥2 mice, n≥3 myofibers per mouse at each Ca^2+ concentration. Area-Ca^2+ curves were fitted with a Hill Curve at Ca^2+ concentrations ranging from 0-2 mM. Kinetic parameters were calculated using Prism Graphpad.
as §1, with “(Demonbreun A R, Quattrocelli M, Barefield D Y, Allen M V, Swanson K E,” for “(Demonbreun”, “McNally E M. An actin-dependent annexin complex mediates plasma membrane repair in muscle. The Journal of cell biology. 2016; 213(6):705-18; Demonbreun A R, and McNally E M. DNA Electroporation, Isolation and Imaging of Myofibers. Journal of visualized experiments: JoVE.” for “McNally,”, “106(106):e53551;” for “Demonbreun et al., 2016b;”, “M, Quinonez M, Capote J, and Vergara J. DNA transfection of mammalian skeletal muscles using in vivo electroporation. Journal of visualized experiments: JoVE. 2009; 32(32)).” for “et al., 2009).”, “Vesicles were considered external if they were found outside the sarcolemma assessed in brightfield and fluorescent channels. All measurements were acquired from myofibers isolated from at least n≥3 mice, n≥3 myofibers per mouse.” left out

B1: recombinant annexin A6: recombinant human annexin A6 protein with C-terminal HIS tag (5186-A6-050, R&D systems); mouse protein from Northwestern core in one cohort (protein, UniProt P08133 2-673, looked up)
Annexin A6: AKPAQGAKYRGSIHDFPGFDPNQDAEALYTAMKGFGSDKEAILDIITSRSNRQRQEVCQSYKSLYGKDLIADLKYELTGKFERLIVGLMRPPAYCDAKEIKDAISGIGTDEKCLIEILASRTNEQMHQLVAAYKDAYERDLEADIIGDTSGHFQKMLVVLLQGTREEDDVVSEDLVQQDVQDLYEAGELKWGTDEAQFIYILGNRSKQHLRLVFDEYLKTTGKPIEASIRGELSGDFEKLMLAVVKCIRSTPEYFAERLFKAMKGLGTRDNTLIRIMVSRSELDMLDIREIFRTKYEKSLYSMIKNDTSGEYKKTLLKLSGGDDDAAGQFFPEAAQVAYQMWELSAVARVELKGTVRPANDFNPDADAKALRKAMKGLGTDEDTIIDIITHRSNVQRQQIRQTFKSHFGRDLMTDLKSEISGDLARLILGLMMPPAHYDAKQLKKAMEGAGTDEKALIEILATRTNAEIRAINEAYKEDYHKSLEDALSSDTSGHFRRILISLATGHREEGGENLDQAREDAQVAAEILEIADTPSGDKTSLETRFMTILCTRSYPHLRRVFQEFIKMTNYDVEHTIKKEMSGDVRDAFVAIVQSVKNKPLFFADKLYKSMKGAGTDEKTLTRIMVSRSEIDLLNIRREFIEKYDKSLHQAIEGDTSGDFLKALLALCGGED
modifications: C-terminal His tag
notes: recombinant human annexin A6 protein with C-terminal HIS tag (5186-A6-050, R&D systems); mouse protein from Northwestern core in one cohort
As to B1, the “percentage of injured muscle (internal myonuclei), histology” value is “reduced” in data set [1] and “reduction” in data set [1] (listed as rANXA6). Further, the “FM 4-64 dye uptake after laser injury” value with wildtype myofibers is reported as “reduction”.

B2: annexin A6: annexin A6 with carboxyl-terminal turboGFP or tdTomato tag, expressed from plasmid electroporated into myofibers (protein, UniProt P14824 2-673, looked up)
Annexin A6: AKIAQGAMYRGSVHDFPEFDANQDAEALYTAMKGFGSDKESILELITSRSNKQRQEICQNYKSLYGKDLIEDLKYELTGKFERLIVNLMRPLAYCDAKEIKDAISGVGTDEKCLIEILASRTNEQMHQLVAAYKDAYERDLESDIIGDTSGHFQKMLVVLLQGTRENDDVVSEDLVQQDVQDLYEAGELKWGTDEAQFIYILGNRSKQHLRLVFDEYLKTTGKPIEASIRGELSGDFEKLMLAVVKCIRSTPEYFAERLFKAMKGLGTRDNTLIRIMVSRSELDMLDIREIFRTKYEKSLYSMIKNDTSGEYKKALLKLCGGDDDAAGQFFPEAAQVAYQMWELSAVSRVELKGTVCAANDFNPDADAKALRKAMKGIGTDEATIIDIVTHRSNAQRQQIRQTFKSHFGRDLMADLKSEISGDLARLILGLMMPPAHYDAKQLKKAMEGAGTDEKTLIEILATRTNAEIRAINEAYKEDYHKSLEDALSSDTSGHFRRILISLATGNREEGGENRDQAQEDAQVAAEILEIADTPSGDKTSLETRFMTVLCTRSYPHLRRVFQEFIKKTNYDIEHVIKKEMSGDVKDAFVAIVQSVKNKPLFFADKLYKSMKGAGTDEKTLTRVMVSRSEIDLLNIRREFIEKYDKSLHQAIEGDTSGDFMKALLALCGGED
modifications: C-terminal turboGFP or tdTomato tag
notes: annexin A6 with carboxyl-terminal turboGFP or tdTomato tag, expressed from plasmid electroporated into myofibers
In the case of B2, in the data set on myofibers, the “Km1/2 (repair cap area as a function of Ca2+ concentration)” value is 0.12 mM.
